Measurements published in publication PMC4200255.

Target: recombinant purified protein HSP70-1A (UniProt P0DMV8)
UniProt P0DMV8, sequence (P0DMV8 whole entry): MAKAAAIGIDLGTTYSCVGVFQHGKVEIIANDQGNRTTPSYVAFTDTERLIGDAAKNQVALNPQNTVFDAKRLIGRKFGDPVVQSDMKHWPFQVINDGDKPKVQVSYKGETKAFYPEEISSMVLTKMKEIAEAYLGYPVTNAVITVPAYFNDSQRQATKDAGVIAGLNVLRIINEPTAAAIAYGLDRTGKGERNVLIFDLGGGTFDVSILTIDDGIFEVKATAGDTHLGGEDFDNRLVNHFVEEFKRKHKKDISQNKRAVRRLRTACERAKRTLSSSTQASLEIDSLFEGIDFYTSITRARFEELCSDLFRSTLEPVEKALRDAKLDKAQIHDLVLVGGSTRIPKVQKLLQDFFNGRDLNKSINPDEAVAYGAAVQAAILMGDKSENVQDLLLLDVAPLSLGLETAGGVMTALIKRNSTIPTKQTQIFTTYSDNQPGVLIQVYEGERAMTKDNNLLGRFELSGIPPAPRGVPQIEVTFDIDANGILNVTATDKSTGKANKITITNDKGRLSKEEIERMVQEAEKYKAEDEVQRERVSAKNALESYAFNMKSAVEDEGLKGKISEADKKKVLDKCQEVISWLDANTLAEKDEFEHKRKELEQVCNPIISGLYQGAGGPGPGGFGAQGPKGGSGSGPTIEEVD

| stimulation of the ATPase activity of 0.7 μM HSP70 by 500 μM peptide (malachite green, 37 °C) [fold] | Binder |
| --- | --- |
| 2 | TPGTFKERIIKSITPETPTE [20-mer peptide of the serotonin transporter C terminus (lacks the first 4 amino acids RLII)] |
| 4 | RLIITPGTFKERIIKSITPETPTE [24-mer peptide of the serotonin transporter C terminus] |
